Experimental findings from patent US20160115234A1 (Biogen, published 2016) are described below.

Test [1] deals with T1, human GPIIb/IIIa (Calbiochem Cat No. 528240) (human, UniProt P08514 32-1039; P05106 27-788).
T1 construct: Bought purified protein coated on ELISA plates; How the α/β subunit specificity ELISA was set up is not described; also called αIIbβ3; glycoprotein IIb/IIIa
Kind of test: ELISA, hybridoma supernatant.

For test [2], the target named is T2, GPIIb/IIIa on human platelets (human, UniProt P08514 32-1039; P05106 27-788).
T2 construct: Native receptor on gel-purified human platelets or on platelets in citrated human whole blood; also called GPIIb/IIIa receptor
As to the kind of experiment: flow cytometry on platelets, hybridoma supernatant (signal higher than in ELISA). A general note: Flow cytometry measures light scatter and fluorescence of single cells or particles in a stream.

Test [3] deals with T2, GPIIb/IIIa on human platelets. Kind of test: flow cytometry, protein spiked into citrated human whole blood, FITC anti-FVII on CD42b-gated platelets.
For test [4], the target named is T3, GPIIb/IIIa nanodiscs (recombinant biotinylated, HPC4-tagged GPIIb/IIIa) (human, UniProt P08514 32-1039; P05106 27-788).
T3 construct: Transiently expressed in HEK293 cells, purified, and put into nanodiscs with scaffold protein and phospholipids; It carries a tag for in vivo biotinylation and an HPC4 tag; also called GPIIb/IIIa receptor; biotinylated GPIIb/IIIa receptor
As to the kind of experiment: SPR, biotinylated GPIIb/IIIa nanodiscs on a streptavidin chip. In general terms: In SPR one partner is held on a chip, and binding of the other changes the refractive index at the surface.

B1: 28C2 (antibody, V domains shown)
VH: QVTLKASGPGIVQPSQTLSLTCSFSGFSLNTSGMGVGWIRQPSGKGLEWLAHIWWDDDKRYNPALKSRLTISKDTSNNQIFLKIASVDTADTATYYCARSHYYGTFYFDYWGQGTTLTVSS
VL: DVQITQSPSYLAASPGETITINCRASKSISKYLAWYQEKPGTTYKLLIYSGSTLQSGIPSRFSGSGSGTDFTLTISSLEPEDFAMYYCQQHIEYPWTFGGGTKLEIKR
notes: Mouse hybridoma monoclonal tested as supernatant
Consider B1, for which the binding result in test [1] is on record as “binds”.

B2: 9D6 (antibody, V domains shown)
VH: QVTLKESGPGILQPSQTLSLTCSFSGFSLSTSGMGVGWIRQSSGKGLEWLAHIWWDDDKRYNPTLKSRLTISKDTSNNQVFLKIANMDTADIATYYCARSHYNGTFYFDFWGQGITLTVSS
VL: DVQITQSPSYLAASPGETITINCRASKSISKYLAWYQEKPGKTNKLLIYSGSTLQSGIPSRFSGSGSGTDFTLTISTLEPEDFAMYYCQQHIEYPWTFGGGTKLEIKR
notes: as for B1
In the case of B2, the binding result in test [1] was “binds”.

B3: 28F4 (antibody, V domains shown)
VH: EVQLVESGGDLVKPGGSLKLSCAASGFTFSNYGMSWVRQTPDKRLEWVATISSGGTYTYYPDSVKGQFTIFRDNAKNTLYLQMSSLKSEDTAMYYCTRRDYDYEGFAYWGQGTLVTVS
VL: DIVLTQSPATLSVTPGDSVSLSCRASQSISNNLHWYQQKSHESPRLLIKYASHSISGIPSRFSGSGSGTDFTLSINSVETEDFGMYFCQQSNNWPFTFGSGTKLEIKR
notes: as for B1
In the case of B3, the binding result in test [2] and in test [1] was “binds” in each case.

B4: Recombinant FVIIa (enzyme)
chain 1: ANAFLEELRPGSLERECKEEQCSFEEAREIFKDAERTKLFWISYSDGDQCASSPCQNGGSCKDQLQSYICFCLPAFEGRNCETHKDDQLICVNENGGCEQYCSDHTGTKRSCRCHEGYSLLADGVSCTPTVEYPCGKIPILEKRNASKPQGR
chain 2: IVGGKVCPKGECPWQVLLLVNGAQLCGGTLINTIWVVSAAHCFDKIKNWRNLIAVLGEHDLSEHDGDEQSRRVAQVIIPSTYVPGTTNHDIALLRLHQPVVLTDHVVPLCLPERTFSERTLAFVRFSLVSGWGQLLDRGATALELMVLNVPRLMTQDCLQQSRKVGDSPNITEYMFCAGYSDGSKDSCKGDSGGPHATHYRGTWYLTGIVSWGQGCATVGHFGVYTRVSQYIEWLQKLMRSEPRPGVLLRAPFP
notes: domain: light chain of FVIIa;domain: heavy chain of FVIIa; Untargeted control; also called rFVIIa; recombinant FVIIa alone (no targeting moiety)
As for B4, the binding result in test [3] and in test [4] was “no binding” each time.

B5: 1H6 (antibody, V domains shown)
VH: QVQLQQSGAELVRPGTSVKVSCKASGYAFTNYLIEWVKQRPGQGLEWIGVINPGSGGTNYNEKFKGKATLTADKSSSTAYMHLSSLTSDDSAVYFCARGRYEWYFDVWGAGTTVTVSS
VL: DIQMTQTTSSLSASLGDRVTISCRASQDITNYLNWYQRKPDGTVKLLIYYTSRLHSGVPSRFSGSGSGTDYSLTISNLEQEDIATYFCQQGYTLPYTFGGGTKLEIKR
notes: as for B1
Turning to B5, the binding result in test [1] is on record as “binds”.

B6: 12B2 (antibody, V domains shown)
VH: QVQLQQSGAELTKPGASVKISCKATGYTFSSYWIEWVKQRPGHGLEWIGEILPGSGITKYNDKFKGKATFTADTSSNTAYMQLSSLTSEDSAVYSCARLISYYYAMDYWGQGTSVTVSS
VL: DIQMTQTTSSLSASLGDRVTISCRASQDISNYLNWYQQKPDGTVKLLIYYTSRLHSGVPSRFSGSGSGTDYSLTISNLEQEDIATYFCQQGNTLPPTFGGGTKLEIKR
notes: as for B1
Take B6: in test [1], the binding result is recorded as “binds”.

B7: 38A8 (antibody, V domains shown)
VH: QVQLQQSGAELVRPGTSVKVSCKASGYAFTNYLIEWIKQRPGQGLEWIGVINPGSGGTNYNEKFKGKATLTADKSSSTAYMQLSSLTSDDSAVYFCARGRYEWYFDVWGAGTTVTVSS
VL: DIQMTQTTSSLSASLGDRVTISCRASQDISNYLNWYLQKPDGTVKLLIYYTSRLHSGVPSRFSGSGSGTDYSLSISNLEQEDIATYFCQQGYTLPYTFGGGTKLEIKR
notes: as for B1
With B7, the binding result in test [1] is “binds”.

B8: 18F7 (antibody, V domains shown)
VH: QVQLKESGPGLVAPSQSLSITCTVSGFSLTSYGVSWVRQPPGKGLEWLGIIWGDGSTNYHSVLKSRLSISKDNSKSQVFLKLNSLQTDDTATYYCAKQDFDVWGAGTTVTVSS
VL: DVQMIQSPFSLSASLGDIVTMTCQASQGTSINLNWFQQKPGKAPKLLIYGVSNLEDGVPSRFSGSRYGTDFTLTIGSLEDEDMATYFCLQHSYLPYTFGGGTKLEIKR
notes: as for B1
With B8, the binding result in test [2] and in test [1] was “binds” each time.

B9: 34D10 (antibody, V domains shown)
VH: EVKLVESGGGLVKPGGSLKLSCAASGFTFSAYAMSWVRQTPEKRLEWVASISSGGTTYYPDSVKRRFTISRDNARNILYLQMSSLRSEDTAMYYCTRGGDYGYALDYWGQGTSVTVSS
VL: ENVLTQSPAIMSASLGEKVTMSCRASSSVNYMYWYQQKSDASPKLWIYYTSNLAPGVPARFSGSGSGNSYSLTISSMEGEDAATYYCQQFSSSPWTFGGGTKLEIKR
notes: as for B1
For B9, in test [1], the binding result is reported as “binds”.

B10: 4B11 (antibody, V domains shown)
VH: EVKLVESGGGLVKPGGSLKLSCAASGFTFSSYAMSWVRQTPEKRLAWVASISSGGNIYFPDSVKGRFTISRDDARNILYLQMRSLRSEDTAMYYCARGGDYGYAMDYWGQGTSVTVSS
VL: ENVLTQSPAIMSASLGEKVTMNCRASSSVNYMYWYQQKSDASPKLWIFYTSNLAPGVPARFSGSGSGNSYSLTISSMEGEDAATYYCQQFSSSPWTFGGGSKLEIKR
notes: as for B1
For B10, in test [1], the binding result is given as “binds”.

B11: 36A8 (antibody, V domains shown)
VH: EVRLVESGGGLVKPGGSLKLSCAASGFTFSTYAMSWVRQTPEKRLEWVASINGGGSTYYPDSVKGRFTISRDNARNILYLQMRSLRSEDTAMYYCARGGDYGYALDYWGQGTSVTVSS
VL: ENVLTQSPAIMSASLGEKVTMNCRASSSVNYMYWYQQKSDASPKLWIFYTSNLAPGVPARFSGSGSGNSYSLTISSMEGEDAATYYCQQFSSSPWTFGGGSKLEIKR
notes: as for B1
Consider B11, for which the binding result in test [1] was “binds”.
